Blank lines part the entries; values can stand above or below the molecule they belong to.
Key:
[1] = tested on: peptide loaded HLA-A2.1+ T2 cells
HLA-A2.1 = target: T1, HLA-A2.1 (Homo sapiens, UniProt P04439, D140Y/D185E/D98H/E176V/E277Q/G131W/G231S/I119V/I121R/I166T/I218V/L300P/L318F/N151K/N90K/P208A/P217A/Q86G/Q94H/R138H/R169H/T345S); assay: HLA-A2.1 peptide binding assay (HLA-A2.1 stabilization on processing defective T2 cells, flow cytometry with mAb BB7.2)
T1 construct: HLA-A2.1 stabilization at the cell surface was determined by flow cytometry using mAb BB7.2; endogenous in cells; host or cells: T2 cells (processing defective, HLA-A2.1+)

[2] = target: T2, HLA-A2.1 (on processing defective T2 cells) (human); assay: peptide binding assay on processing defective T2 cells
T2 construct: also called MHC HLA-A2.1 molecule

binding to the MHC HLA-A2.1 molecule (HLA-A2.1): bind
Molecule: M-L-G-T-H-T-M-E-V (MLGTHTMEV)

binding to the MHC HLA-A2.1 molecule (HLA-A2.1): bind
Molecule: R-L-M-K-Q-D-F-S-V (RLMKQDFSV)

Further lines, the molecule ahead of its results:

Molecule: CC(C)C[C@H](NC(=O)[C@H](CCCNC(=N)N)NC(=O)[C@H](CC(C)C)NC(=O)[C@@H](NC(=O)[C@H](C)NC(=O)[C@@H](NC(=O)CNC(=O)[C@H](CC(=O)O)NC(=O)[C@H](CC(C)C)NC(=O)[C@@H](N)CC(C)C)[C@@H](C)O)[C@@H](C)O)C(=O)O [L-L-D-G-T-A-T-L-R-L]
recognized by anti-melanoma cytotoxic T lymphocytes in the context of HLA-A2.1 [1]: recognized

Molecule: V-L-P-D-G-Q-V-I-W-V (VLPDGQVIWV)
binding to the MHC HLA-A2.1 molecule (HLA-A2.1): bind

B1: gp100 peptide LLDGTATLRL (peptide)
peptide: LLDGTATLRL
notes: also called gp100 amino acids 457-466
binding result [2]: binds

From patent US6500919B1, “Melanoma associated antigenic polypeptide, epitopes thereof and vaccines against melanoma” (IntroGene B.V., priority 1994, dated 2002)
